Source: publication PMC4027171

Target: human EME2 (His-EME2) (human)
Experiment: co-purification of co-expressed subunits

human EME2 (His-EME2) (human), sequence (A4GXA9 whole entry): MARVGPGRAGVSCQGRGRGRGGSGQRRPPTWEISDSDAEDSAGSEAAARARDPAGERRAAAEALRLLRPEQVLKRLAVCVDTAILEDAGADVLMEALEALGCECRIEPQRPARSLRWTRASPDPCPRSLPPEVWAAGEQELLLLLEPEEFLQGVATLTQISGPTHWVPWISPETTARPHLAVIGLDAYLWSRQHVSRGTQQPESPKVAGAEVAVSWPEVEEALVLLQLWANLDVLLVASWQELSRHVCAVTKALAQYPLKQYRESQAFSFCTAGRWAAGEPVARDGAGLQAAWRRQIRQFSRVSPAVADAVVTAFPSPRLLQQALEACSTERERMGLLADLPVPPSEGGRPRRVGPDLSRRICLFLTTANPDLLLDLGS

stoichiometry N: 1
B1: human MUS81 (enzyme)
chain: MAAPVRLGRKRPLPACPNPLFVRWLTEWRDEATRSRRRTRFVFQKALRSLRRYPLPLRSGKEAKILQHFGDGLCRMLDERLQRHRTSGGDHAPDSPSGENSPAPQGRLAEVQDSSMPVPAQPKAGGSGSYWPARHSGARVILLVLYREHLNPNGHHFLTKEELLQRCAQKSPRVAPGSARPWPALRSLLHRNLVLRTHQPARYSLTPEGLELAQKLAESEGLSLLNVGIGPKEPPGEETAVPGAASAELASEAGVQQQPLELRPGEYRVLLCVDIGETRGGGHRPELLRELQRLHVTHTVRKLHVGDFVWVAQETNPRDPANPGELVLDHIVERKRLDDLCSSIIDGRFREQKFRLKRCGLERRVYLVEEHGSVHNLSLPESTLLQAVTNTQVIDGFFVKRTADIKESAAYLALLTRGLQRLYQGHTLRSRPWGTPGNPESGAMTSPNPLCSLLTFSDFNAGAIKNKAQSVREVFARQLMQVRGVSGEKAAALVDRYSTPASLLAAYDACATPKEQETLLSTIKCGRLQRNLGPALSRTLSQLYCSYGPLT
